Each block holds one substance with its values, some of them ahead of it.
Legend:
human CD28 (human) = human CD28 (human) (UniProt P10747); assay: cell-based or functional assay
porcine CD86 (porcine) = assay: cell-based or functional assay
[1] = biological target: human CTLA4-human CD59 chimeric molecule with a human CD59 leader sequence and an (AS)3 linker (human); assay: flow cytometry, PAEC HT 49-hCCm (medium hCTLA4-hCD59); mean ± SE, n=4
[2] = biological target: human CTLA4-human CD59 chimeric molecule with a human CD59 leader sequence and an (AS)3 linker (human); assay: flow cytometry, PAEC HT 48-hCCl (low hCTLA4-hCD59); mean ± SE, n=4
[3] = biological target: human CTLA4-human CD59 chimeric molecule with a human CD59 leader sequence and an (AS)3 linker (human); assay: flow cytometry, PAEC Control-hCCm (pig #51, medium hCTLA4-hCD59); mean ± SE, n=4
[4] = biological target: human CTLA4-human CD59 chimeric molecule with a human CD59 leader sequence and an (AS)3 linker (human); assay: flow cytometry, PAEC Control-hCCh (pig #51, high hCTLA4-hCD59); mean ± SE, n=4

Chain of human CTLA4-human CD59 chimeric molecule with a human CD59 leader sequence and an (AS)3 linker (human) (chain, as listed by the source mutant limits assumed): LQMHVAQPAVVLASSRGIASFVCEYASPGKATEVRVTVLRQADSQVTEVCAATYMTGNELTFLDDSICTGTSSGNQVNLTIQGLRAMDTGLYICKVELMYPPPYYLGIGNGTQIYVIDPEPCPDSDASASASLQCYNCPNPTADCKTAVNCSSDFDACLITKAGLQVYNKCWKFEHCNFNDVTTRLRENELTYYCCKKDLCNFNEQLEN
Chain of UniProt P10747 (P10747 19-220): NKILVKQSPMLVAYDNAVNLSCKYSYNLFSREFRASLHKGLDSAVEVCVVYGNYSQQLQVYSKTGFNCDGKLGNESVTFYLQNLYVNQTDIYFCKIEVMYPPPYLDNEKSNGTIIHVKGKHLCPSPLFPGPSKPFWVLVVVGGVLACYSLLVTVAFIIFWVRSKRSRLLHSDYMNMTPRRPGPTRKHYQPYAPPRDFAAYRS

IL-2 secreted from Jurkat cells co-cultured with vector control PAEC and PHA (ELISA) (human CD28 (human)): 400 pg/mL
Substance: porcine CD86 (ligand)

IL-2 secreted from Jurkat cells co-cultured with PI-PLC treated hCTLA4-hCD59 PAEC (porcine CD86 (porcine)): 570 pg/mL
IL-2 secreted from Jurkat cells co-cultured with hCTLA4-hCD59 PAEC (fold decrease) (porcine CD86 (porcine)): 5
Substance: human CTLA4-human CD59 chimeric molecule with a human CD59 leader sequence and an (AS)3 linker

mean fluorescence intensity [1]: 30.9 MFI
mean fluorescence intensity [2]: 10.2 MFI
mean fluorescence intensity [3]: 101 MFI
mean fluorescence intensity [4]: 112 MFI
Substance: mouse monoclonal antibody BNI3 (Immunotech), specific for hCTLA4

From patent publication US20030086940A1
